Here are results for two molecules from article PMC8109789, “Phe-Gly motifs drive fibrillization of TDP-43’s prion-like domain condensates” (PLoS Biology, 2021).

The labels stand for the following.
B1: TDP-43 prion-like domain, TDP-43(267–414) (domain or fragment, UniProt Q13148 267-414, looked up)
chain: NRQLERSGRFGGNPGGFGNQGGFGNSRGGGAGLGNNQGSNMGGGMNFGAFSINPAMMAAAQAALQSSWGMMGMLASQQNQSGPSGNNQNQGNMQREPNQAFGSGNNSYSGSNSGAAIGWGSASNAGSGSGFNGGFGSSMDSKSSGWGM
notes: Uniformly 15N or 15N/13C labelled for NMR; Fibril seeds of this molecule (from the SSNMR rotor) are the target in the cross-seeding assay; also called TDP-43 PrLD; PrLD of TDP-43; source: E. coli BL21 Star (DE3), inclusion bodies, purified (Ni-NTA in 8 M urea, PD-10 desalting at pH 4)

Data set [1] deals with the molecule itself. Briefly: solution NMR, 1H-15N HSQC peak intensities over time; 55 and 110 μM TDP-43 PrLD, pH 4.0, 298 K, 1 mM CD3COOD in 85/15 H2O/D2O, no salt or RNA; first spectrum within 1 hour, second after approximately 20 hours; self-association into aggregates and droplets.
Data set [2] concerns the target B1. Kind of data set: cross-seeding followed by ThT fluorescence; 5 μM of each protein variant in 1 mM CD3COOD with 40 μM ThT, 2% (0.12 μM) seeds of the wild-type fibrils studied by SSNMR, 25°C, excitation 450 nm, emission 480 nm. The following applies: both partners purified.

For the molecule B1, in data set [1], the binding result is given as “binds”.

B2: TDP-43 PrLD variant F313A+F316A (domain or fragment, UniProt Q13148 267-414, looked up)
chain: NRQLERSGRFGGNPGGFGNQGGFGNSRGGGAGLGNNQGSNMGGGMNAGAASINPAMMAAAQAALQSSWGMMGMLASQQNQSGPSGNNQNQGNMQREPNQAFGSGNNSYSGSNSGAAIGWGSASNAGSGSGFNGGFGSSMDSKSSGWGM
notes: TDP-43 prion-like domain, residues 267-414, with the 2 central Phe residues changed to Ala; The text prints the variant once as F312A+F316A and otherwise as F313A+F316A; also called double mutant; F312A+F316A (as printed once); source: desalted from the 8 M urea-containing solution with a PD-10 column
As for B2, the binding result in data set [2] is “binds”.
